Assay results published in patent US20240043507A1 (RQ BIOTECHNOLOGY, published 2024).
Numbering of substitutions follows the chain as printed.

B1: antibody 253H165L (antibody, V domains shown)
VH: not shown
VL: DIVMTQSPGTLSLSPGERATLSCRASQSVRSSYLAWYQQKPGQAPRLLIYGASRRGTGIPDRFSGSGSGTDFTLTISRLEPEDFAVYYCQQYGSSPWTFGQGTKVEIK
B2: antibody 165 (antibody, V domains shown)
VH: QVQLVQSGPEVKKPGTSVKVSCKASGFTFTSSAVQWVRQARGQRLEWIGWIVVGSGNTNYAQKFQESVTITRDMSTSTAYMELSSLRSEDTAVYYCAAPHCIGGSCHDAFDIWGQGTMVTVSS
VL: B1 VL
B3: antibody 281 (antibody, V domains shown)
VH: QVQLVESGGGLVQPGGSLRLSCAASGFPFSIYWMSWVRQAPGKGLEWVANIKQDGSEKYYVDSVKGRFTISRDNAKNSLYLHMNSLRGEDTAVYYCASRYYDFRPEAWFDYWGQGTLVTVSS
VL: not shown
B4: antibody 150 (antibody, V domains shown)
VH: QVQLVESGGGLIQPGGSLRLSCAASGVTVSSNYMSWVRQAPGKGLEWVSIIYSGGTTYYADSVKGRFTISRDSSMNTLYLQMNSLRAEDTAVYYCARDLMVYGIDVWGQGTTVTVSS
VL: EIVMTQSPSSLSASVGDRVTITCRASQGISSYLAWYQQKPGKAPKLLIYAASTLQSGVPSRFSGSGSGTDFTLTISSLQPEDFATYYCQQLDSYPPGYTFGQGTKVDIK
B5: antibody 278 (antibody, V domains shown)
VH: QVQLVQSGAEVKKPGASVKVSCKASGYIFIRYGISWVRQAPGQGLEWMGWISANNGYTNYAQKLQGRVTMTTDTSTSTAYMELRSLRSDDTAVYYCARDGGILTGYLDYFDHWGQGTLVTVSS
VL: DIQMTQSPSSLSASVGDRLTITCRASQSIASYLNWYQQKPGKAPKLLIYAASSLQSGVPSRFSGSGSGTDFTLTISSLQPEDFATYHCQQSYSTLGITFGPGTKVDIK
B6: antibody 40 (antibody, V domains shown)
VH: QVQLVESGGGLVQPGGSLRLSCAVSGFTVSRNYMSWVRQAPGKGLEWVSLIYSGGSTFYADSVKGRFTISRDNSKNTLYLQMNSLRAEDTAVYYCARDLFHRSGYHDYWGQGTLVTVSS
VL: not shown
B7: antibody 132 (antibody, V domains shown)
VH: QVQLQQWGAGLLKPSETLSLTCAVYGGSFSGYYWSWIRQPPGKGLEWIGEINHSGSTNYNPSLKSRVTISVDTSKNQFSLKLSSVTAADTAVYYCARTDYYDSIDWGQGTLVTVSS
VL: QSVLTQEPSLTVSPGGTVTLTCGSSTGAVTSGHYPYWFQQKPGQVPRTLIYDTRNKHSWTPARFSGSLLGGKAALTLSGAQPEDEAEYYCLLSSSGARVFGGGTKLTVL
B8: antibody 175 (antibody, V domains shown)
VH: EVQLVESGGGLIQPGGSLRLSCAASGLTVSRNYMSWVRQAPGKGLEWVSLIYSGGSTYYADSVKGRFTISRDNSKNTLYLQMNSLRAEDTAVYYCARDLRGEVWGQGTMVTVSS
VL: not shown
B9: antibody 316 (antibody, V domains shown)
VH: not shown
VL: QAVLTQPPSASGSPGQSVTISCTGTSSDVGGYNYVSWYQQHPGKAPKLMIYEVSKRPSGVPDRFSGSKSGNTASLTVSGLQAEDEADYYCSSYAGSNHWVFGGGTKLTVL
B10: antibody 398 (antibody, V domains shown)
VH: QVQLVESGGGLVQPGGSLRLSCAASGFTVSSNYMTWVRQAPGKGLEWVSVIYSGGSTYYADSVKGRFTISRDNSKNTLYLQMNSLRADDTAVYYCARDSTADYDFWSGYYVGAFHIWGQGTMVTVSS
VL: B9 VL with A2T, P8A, A10V, V18I, S54T, H98N
B11: antibody 318 (antibody, V domains shown)
VH: QVQLVQSGPEVKKPGTSVKVSCKASGFTLTSSAMQWVRQARGQRLEWIGWIVVGSGNTNYAQKFQERVTITRDMSTSTAYMELSSLRSEDTAVYYCAAGRGYNSDFDYWGQGTLVTVSS
VL: AIRMTQSPGTLSLSPGERATLSCRASQSVSSSYLAWYQQRPGQAPRLLIYGTSSRATGIPDRFSGSGSGTDFTLTISRLEPEDFAVYYCQQYGYSVYTFGQGTKVDIK
B12: antibody 158 (antibody, V domains shown)
VH: EVQLLESGGDLIQPGGSLRLSCAASGVTVSSNYMSWVRQAPGKGLEWVSIIYPGGSTFYADSVKGRFTISRDNSKNTLYLQMHSLRAEDTAVYYCARDLGSGDMDVWGKGTTVTVSS
VL: DIVMTQSPSFLSASVGDRVTITCRASQGISSYLAWYQQKPGKAPKLLIQAASTLQSGVPSRFSGSGSGTEFTLTISSLQPEDFATYYCQQLNSYRYTFGQGTKVEIK
B13: antibody 170 (antibody, V domains shown)
VH: QVQLVESGAEVKKPGESLKISCKGSGYSFTSYWIVWVRQMPGKGLEWMGIIYPGDSDTKYSPSFQGQVSISADKPISTAYLQWSRLKASDTAMYYCARLGNWLVDYWGQGTLVTVSS
VL: DIVMTQSPLSLSVTPGQPASISCKSSQSLLHSDGKTYLYWYLQKPGQPPQLLMYEVSNRFSGVPDRFSGSGSGTDFTLKISRVESEDVGVYYCMQSIQLPRGITFGQGTRLEIK
B14: antibody 269 (antibody, V domains shown)
VH: QVQLVESGGGLIQPGGSLRLSCAASGLTVNRNYMSWIRQAPGKGLEWVSVIYSGGSTFYADSVKGRFTISRDNSKNTLSLQMNSLRAEDTAIYYCARDFYEGSFDIWGQGTMVTVSS
VL: AIQLTQSPSFLSASIGDRVTITCRASQGISSYLAWYQQKPGKAPKLLIYAASTLQSGVPSRFSGSGSGTEFTLTISSLQPEDFASYYCQQLNSYPAPVFGPGTKVDIK
B15: antibody 88 (antibody, V domains shown)
VH: QLQLQESGPGLVKPSQTLSLTCTVSGGSISSGSYNWTWIRQPAGKGLEWIGRIYNSGSTNYNPSLKSRVTISVDTSKNQLSLKVRSVTAADTAVYYCARHCSGGTCYPKYYYGMDVWGQGTTVTVSS
VL: QSALTQPPSVSEAPRQRVTISCSGSSSNIGNNAVNWYQQFPGKAPKLLIYYDDLLPSGVSDRFSGSKSGTSASLAISGVQSEDEADYYCAAWDDSLNVVVFGGGTKLTVL
B16: antibody 58 (antibody, V domains shown)
VH: QVQLVESGGGLVQPGRSLRLSCAASGFTFDDYAMHWVRQPPGKGLEWVSGVSWNSGTIGYADSVKGRFIISRDNAKNSLYLQMNSLKAEDTALYYCAREVGGTFGVLISREGGLDYWGQGTLVTVSS
VL: SYELTQPPSVSVAPGQTARITCGGNTIGSKSVHWYQQRPGQAPVLVVYDDSDRPSGIPERFSGSNSGNTATLTISRVEAGDEADYYCQVWDSSSDRVVFGGGTKLTVL
B17: antibody 222 (antibody, V domains shown)
VH: EVQLVESGGGLIQPGGSLRLSCAASGLTVSSNYMSWVRQAPGKGLEWVSVIYSGGSTFYADSVKGRFTISRDNSKNTLYLQMNSLGAEDTAVYYCARGEGSPGNWFDPWGQGTLVTVSS
VL: DVVMTQSPGTLSLSPGERATLSCRASQSVPSSYLAWYQQKPGQAPRLLIYGASTRATGIPDRFSGSGSGTDFTLTISRLEPEDFAVYYCQHYDTSPRFGGGTKVDIK
B18: antibody 384 (antibody, V domains shown)
VH: EVQLVESGGGLVKPGESLRLSCAASGFTFSDYYMTWIRQAPGKGLEWVSYIRSSGHTIYYADSVKGRFTISRDNAKNSLYLQMNSLRVEDTAVYYCARGGVLRFLEWPLNAFDIWGQGTMVTVSS
VL: DIQLTQSPSSLSASVGDRVTITCRASQGISNYLAWYQQKPGKVPKLLIYAASTLQSGVPSRFSGSGSGTDFTLTISSLQPEDVATYYCQKYNNALGTFGQGTKVEIK
B19: antibody 40 (antibody, V domains shown)
VH: B6 VH
VL: not shown
notes: also called mAb 40
B20: antibody 58 (antibody, V domains shown)
VH: B16 VH
VL: B16 VL
notes: also called mAb 58
B21: antibody 384 (antibody, V domains shown)
VH: B18 VH
VL: B18 VL

molecular target: spike protein of SARS-CoV-2 strain Victoria (SARS-CoV-2/human/AUS/VIC01/2020) (SARS-CoV-2, UniProt P0DTC2 14-1273); assay: cell-based or functional assay

| Binder | IC50 (FRNT, live virus neutralisation) [µg/mL] |
| --- | --- |
| B1 | 0.003 |
| B2 | 0.034 |
| B3 | 0.005 |
| B4 | 0.012 |
| B5 | 0.014 |
| B6 | 0.026 |
| B7 | 0.048 |
| B8 | 0.026 |
| B9 | 0.018 |
| B10 | 0.091 |
| B11 | 0.029 |
| B12 | 0.031 |
| B13 | 0.025 |
| B14 | 0.03 |
| B15 | 0.033 |
| B16 | 0.041 |
| B17 | 0.019 |

molecular target: spike protein of SARS-CoV-2 strain B.1.351 (SARS-CoV-2, UniProt P0DTC2 14-1273); assay: cell-based or functional assay

| Binder | IC50 (FRNT, live virus neutralisation) [µg/mL] | B.1.351/Victoria ratio (IC50) |
| --- | --- | --- |
| B1 | 0.013 | – |
| B2 | 0.054 | – |
| B3 | > 10 | – |
| B4 | 0.35 | 30 |
| B5 | 0.16 | – |
| B6 | 0.738 | – |
| B7 | > 10 | – |
| B8 | > 10 | – |
| B9 | > 10 | – |
| B10 | > 10 | – |
| B11 | 0.019 | – |
| B12 | > 10 | – |
| B13 | > 10 | – |
| B14 | > 10 | – |
| B15 | > 10 | – |
| B18 | > 10 | – |
| B16 | 0.136 | – |
| B17 | 0.017 | – |

molecular target: spike protein of SARS-CoV-2 strain Victoria (SARS-CoV-2/human/AUS/VIC01/2020) (SARS-CoV-2, UniProt P0DTC2 14-1273); assay: cell-based or functional assay; remark: another data set of the same source

| Binder | IC50 (FRNT neutralisation) [µg/mL] |
| --- | --- |
| B19 | 0.026 |
| B20 | 0.041 |

molecular target: spike protein of SARS-CoV-2 strain B.1.1.7 (SARS-CoV-2, UniProt P0DTC2 14-1273); assay: cell-based or functional assay

| Binder | IC50 (FRNT neutralisation) [µg/mL] |
| --- | --- |
| B19 | 0.035 |
| B21 | 0.005 |
| B20 | 0.116 |

molecular target: spike protein of SARS-CoV-2 strain B.1.351 (SARS-CoV-2, UniProt P0DTC2 14-1273); assay: cell-based or functional assay; remark: another data set of the same source

| Binder | IC50 (FRNT neutralisation) [µg/mL] |
| --- | --- |
| B19 | 0.738 |
| B21 | > 10 |
| B20 | 0.136 |

molecular target: spike protein of SARS-CoV-2 strain P.1 (SARS-CoV-2, UniProt P0DTC2 14-1273); assay: cell-based or functional assay

| Binder | IC50 (FRNT neutralisation) [µg/mL] |
| --- | --- |
| B19 | 0.153 |
| B21 | > 10 |
| B20 | 0.236 |
